Assay results taken from patent US20230272056A1 (Merck Sharp & Dohme, published 2023).
Numbering of substitutions follows the chain as printed. Numbers in names are those of the source.

B1: 57BJN (Fab, V domains shown)
VH: EVQLVQSGAEVKKPGASVKVSCKASGYTFTSYDMHWVRQAPGQGLEWMGRIDPQSGGIKYAQKFQGRATLTVDTSTSTAYMELSRLRSDDTAVYYCARWDYGGYFDVWGQGTLVTVSS
VL: DIQMTQSPSSLSASVGDRVTITCRASQDITNYLNWYQQKPGKAVKLLIYYTSRLHSGVPSRFSGSGSGTDYTLTISSLQPEDFATYFCQQGDTLPWTFGQGTKLEIKR
notes: also called VH W33D / VL (57BJN)
B2: 61BJN (Fab, V domains shown)
VH: B1 VH with S31D, G57D, I58H, K59D, W99Y, Y101H
VL: B1 VL with T30Y
notes: also called VH S31D W33D G57D I58H K59D W99Y Y101H / VL T30Y (61BJN)
B3: 63BJN (Fab, V domains shown)
VH: B1 VH with S31F, M34I
VL: B1 VL with T30Y
notes: also called VH S31F W33D M34I / VL T30Y (63BJN)
B4: 79BJN (Fab, V domains shown)
VH: B1 VH with S55D, G57D, I58V
VL: B1 VL with T30Y, R53G, T93E
notes: also called VH W33D S55D S57D I58V / VL T30Y R53G T93E (79BJN)
B5: 59BJN (Fab, V domains shown)
VH: B1 VH with D33Q, M34V
VL: B1 VL with T30Y
notes: also called VH W33Q M34V / VL T30Y (59BJN)
B6: 67BJN (Fab, V domains shown)
VH: B1 VH
VL: B1 VL with T30Y, R53V
notes: also called VH W33D / VL T30Y R53V (67BJN)
B7: 66BJN (Fab, V domains shown)
VH: B1 VH with S55T, Y101H
VL: B1 VL with T30Y, L94Q
notes: also called VH W33D S55T Y101H / VL T30Y L94Q (66BJN)
B8: 60BJN (Fab, V domains shown)
VH: B1 VH with I58E, W99Y
VL: B1 VL with T30Y
notes: also called VH W33D I58E W99Y / VL T30Y (60BJN)
B9: 73BJN (Fab, V domains shown)
VH: B1 VH
VL: B1 VL with T30Y
notes: also called VH W33D / VL T30Y (73BJN)
B10: 78BJN (Fab, V domains shown)
VH: B1 VH with K59R
VL: B1 VL with T30Y, R53N, T93E
notes: also called VH W33D K59R / VL T30Y R53N T93E (78BJN)
B11: 58BJN (Fab, V domains shown)
VH: B1 VH with W99Y, Y101H
VL: B1 VL with T30Y
notes: also called VH W33D W99Y Y101H / VL T30Y (58BJN)
B12: 71BJN (Fab, V domains shown)
VH: B1 VH with S55T, G57D, Y104Q
VL: B1 VL with T30Y, R53G
notes: also called VH W33D S55T G57D Y104Q / VL T30Y R53G (71BJN)
B13: 64BJN (Fab, V domains shown)
VH: B1 VH with S31T, D33W, I58S
VL: B1 VL with T30Y, R53H
notes: also called VH S31T I58S / VL T30Y R53H (64BJN)
B14: 62BJN (Fab, V domains shown)
VH: B1 VH with Q54Y, S55G, W99Y, Y101H
VL: B1 VL with T30Y
notes: also called VH W33D Q54Y S55G W99Y Y101H / VL T30Y (62BJN)
B15: 76BJN (Fab, V domains shown)
VH: B1 VH with S31Y, Q54Y, S55D, G57D
VL: B1 VL with T30Y, R53L, T93E
notes: also called VH S31Y W33D Q54Y S55D G57D / VL T30Y R53L T93E (76BJN)
B16: 81BJN (Fab, V domains shown)
VH: B1 VH with S31E, K59R, Y104Q, V107A
VL: B1 VL with T30Y, R53V
notes: also called VH S31E W33D K59R Y104Q V107A / VL T30Y R53V (81BJN)
B17: 72BJN (Fab, V domains shown)
VH: B1 VH with S31Q, W99Y
VL: B1 VL with T30Y, R53I
notes: also called VH S31Q W33D W99Y / VL T30Y R53I (72BJN)
B18: 75BJN (Fab, V domains shown)
VH: B1 VH with S31K, S55D, I58F
VL: B1 VL with T30F, R53Y, T93E
notes: Label says VL T30Y but the printed LCDR1 reads F at 30; also called VH S31K W33D S55D I58F / VL T30Y R53Y T93E (75BJN)
B19: 68BJN (Fab, V domains shown)
VH: B1 VH with D33W, H35Q, S55D, G57D, W99Y
VL: B1 VL with T30Y, R53V
notes: also called VH H35Q S55D S57D W99Y / VL T30Y R53V (68BJN)
B20: 77BJN (Fab, V domains shown)
VH: B1 VH with I58V
VL: B1 VL with T30Y, R53V, T93E
notes: also called VH W33D I58V / VL T30Y R53V T93E (77BJN)
B21: 65BJN (Fab, V domains shown)
VH: B1 VH with M34L, W99Y, Y101Q
VL: B1 VL with T30Y, N31Y
notes: also called VH W33D M34L W99Y Y101Q / VL T30Y N31Y (65BJN)
B22: 74BJN (Fab, V domains shown)
VH: B1 VH with S31Y, M34L
VL: B1 VL with T30Y, T93D, L94I
notes: also called VH S31Y W33D M34L / VL T30Y T93D L94I (74BJN)
B23: 80BJN (Fab, V domains shown)
VH: B1 VH with K59R, Y104Q
VL: B1 VL with T30Y, R53I
notes: also called VH W33D K59R Y104Q / VL T30Y R53I (80BJN)

Molecular target: T1, human LAP-TGFB2 Fc fusion (human)
T1 construct: also called human LAP-TGFβ2; LAP-TGFβ isoform 2
T1 sequence (chain, as listed by the source limits assumed): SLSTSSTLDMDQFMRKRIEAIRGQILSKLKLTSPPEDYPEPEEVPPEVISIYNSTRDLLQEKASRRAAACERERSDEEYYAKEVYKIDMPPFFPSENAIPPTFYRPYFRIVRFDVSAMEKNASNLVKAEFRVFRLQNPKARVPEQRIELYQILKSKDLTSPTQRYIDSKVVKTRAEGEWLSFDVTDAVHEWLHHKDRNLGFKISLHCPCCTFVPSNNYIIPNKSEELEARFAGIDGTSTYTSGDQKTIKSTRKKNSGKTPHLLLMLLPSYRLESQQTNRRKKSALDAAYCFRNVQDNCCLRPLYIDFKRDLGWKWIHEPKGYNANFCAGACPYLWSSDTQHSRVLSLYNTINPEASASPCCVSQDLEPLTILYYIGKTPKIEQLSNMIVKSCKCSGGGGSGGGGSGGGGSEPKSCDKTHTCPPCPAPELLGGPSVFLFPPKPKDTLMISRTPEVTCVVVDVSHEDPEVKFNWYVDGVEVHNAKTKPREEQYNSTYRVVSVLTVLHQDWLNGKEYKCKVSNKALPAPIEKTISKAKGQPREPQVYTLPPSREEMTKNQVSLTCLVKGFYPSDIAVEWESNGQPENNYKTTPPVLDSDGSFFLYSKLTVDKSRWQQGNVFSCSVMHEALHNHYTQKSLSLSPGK
Assay: SPR
Source text: (§1) This Example describes the isoform specificity of the yeast display mutants to bind to human LAP-TGFβ isoforms 1, 2, and 3 using surface plasmon resonance. A Series S CM4 sensor chip (GE Healthcare, catalog BR100534) was immobilized with an anti-human Fc capture antibody following the kit protocol (GE Healthcare, catalog BR100839) on a Biacore T200 instrument with 1× HBS-EP+ (Teknova, catalog H8022). […] Binding specificity experiments between human LAP-TGFβ isoforms 2 and 3 and yeast display mutants were performed in 1× HBS-EP+ with 0.1 mg/mL BSA at 25° C. Approximately 20-40 RU amounts of human LAP-TGFβ2 and 3 were captured to the anti-human Fc surface followed by injection of 1000 nM Fab including a negative control 0 nM Fab. The binding data were double referenced by subtraction of signal from a reference (capture surface only) flow cell and the negative control 0 nM Fab injection. Binding rate constants were determined by fitting the data with a 1:1 binding model (GE Healthcare Biacore T200 Evaluation software 3.0).

binding result | Binder
no binding (tested: 1000 nM Fab) | B1
no binding (tested: 1000 nM Fab) | B2
no binding (tested: 1000 nM Fab) | B3
no binding (tested: 1000 nM Fab) | B4
no binding (tested: 1000 nM Fab) | B5
no binding (tested: 1000 nM Fab) | B6
no binding (tested: 1000 nM Fab) | B7
no binding (tested: 1000 nM Fab) | B8
no binding (tested: 1000 nM Fab) | B9
no binding (tested: 1000 nM Fab) | B10
no binding (tested: 1000 nM Fab) | B11
no binding (tested: 1000 nM Fab) | B12
no binding (tested: 1000 nM Fab) | B13
no binding (tested: 1000 nM Fab) | B14
no binding (tested: 1000 nM Fab) | B15
no binding (tested: 1000 nM Fab) | B16
no binding (tested: 1000 nM Fab) | B17
no binding (tested: 1000 nM Fab) | B18
no binding (tested: 1000 nM Fab) | B19
no binding (tested: 1000 nM Fab) | B20
no binding (tested: 1000 nM Fab) | B21
no binding (tested: 1000 nM Fab) | B22
no binding (tested: 1000 nM Fab) | B23

Molecular target: T2, human LAP-TGFB3 Fc fusion (human)
T2 construct: also called human LAP-TGFβ3; LAP-TGFβ isoform 3
T2 sequence (chain, as listed by the source limits assumed): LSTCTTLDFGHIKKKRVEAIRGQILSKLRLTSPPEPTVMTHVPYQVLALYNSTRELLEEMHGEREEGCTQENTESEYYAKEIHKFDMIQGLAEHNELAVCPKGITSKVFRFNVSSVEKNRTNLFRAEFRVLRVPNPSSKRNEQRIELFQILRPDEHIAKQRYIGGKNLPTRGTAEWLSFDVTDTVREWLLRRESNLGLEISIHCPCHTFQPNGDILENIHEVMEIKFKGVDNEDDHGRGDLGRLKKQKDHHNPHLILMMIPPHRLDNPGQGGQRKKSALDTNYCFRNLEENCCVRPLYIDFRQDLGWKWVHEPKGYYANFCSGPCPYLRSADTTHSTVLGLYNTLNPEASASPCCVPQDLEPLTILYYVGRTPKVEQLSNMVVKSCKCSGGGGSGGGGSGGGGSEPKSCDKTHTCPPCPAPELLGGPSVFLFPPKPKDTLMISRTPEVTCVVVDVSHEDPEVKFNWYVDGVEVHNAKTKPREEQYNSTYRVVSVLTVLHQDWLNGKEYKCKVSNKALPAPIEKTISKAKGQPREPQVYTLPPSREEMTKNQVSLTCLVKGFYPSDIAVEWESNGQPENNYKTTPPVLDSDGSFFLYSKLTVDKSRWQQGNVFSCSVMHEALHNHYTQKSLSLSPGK
Assay: SPR
Source text: as §1

binding result | Binder
no binding (tested: 1000 nM Fab) | B1
no binding (tested: 1000 nM Fab) | B2
no binding (tested: 1000 nM Fab) | B3
no binding (tested: 1000 nM Fab) | B4
no binding (tested: 1000 nM Fab) | B5
no binding (tested: 1000 nM Fab) | B6
no binding (tested: 1000 nM Fab) | B7
no binding (tested: 1000 nM Fab) | B8
no binding (tested: 1000 nM Fab) | B9
no binding (tested: 1000 nM Fab) | B10
no binding (tested: 1000 nM Fab) | B11
no binding (tested: 1000 nM Fab) | B12
no binding (tested: 1000 nM Fab) | B13
no binding (tested: 1000 nM Fab) | B14
no binding (tested: 1000 nM Fab) | B15
no binding (tested: 1000 nM Fab) | B16
no binding (tested: 1000 nM Fab) | B17
no binding (tested: 1000 nM Fab) | B18
no binding (tested: 1000 nM Fab) | B19
no binding (tested: 1000 nM Fab) | B20
no binding (tested: 1000 nM Fab) | B21
no binding (tested: 1000 nM Fab) | B22
no binding (tested: 1000 nM Fab) | B23

Molecular target: T3, human LAP-TGFB1 Fc fusion (human)
T3 construct: also called human LAP-TGFβ1-Fc; human LAP-TGFβ-Fc isoform 1
T3 sequence (chain, as listed by the source limits assumed): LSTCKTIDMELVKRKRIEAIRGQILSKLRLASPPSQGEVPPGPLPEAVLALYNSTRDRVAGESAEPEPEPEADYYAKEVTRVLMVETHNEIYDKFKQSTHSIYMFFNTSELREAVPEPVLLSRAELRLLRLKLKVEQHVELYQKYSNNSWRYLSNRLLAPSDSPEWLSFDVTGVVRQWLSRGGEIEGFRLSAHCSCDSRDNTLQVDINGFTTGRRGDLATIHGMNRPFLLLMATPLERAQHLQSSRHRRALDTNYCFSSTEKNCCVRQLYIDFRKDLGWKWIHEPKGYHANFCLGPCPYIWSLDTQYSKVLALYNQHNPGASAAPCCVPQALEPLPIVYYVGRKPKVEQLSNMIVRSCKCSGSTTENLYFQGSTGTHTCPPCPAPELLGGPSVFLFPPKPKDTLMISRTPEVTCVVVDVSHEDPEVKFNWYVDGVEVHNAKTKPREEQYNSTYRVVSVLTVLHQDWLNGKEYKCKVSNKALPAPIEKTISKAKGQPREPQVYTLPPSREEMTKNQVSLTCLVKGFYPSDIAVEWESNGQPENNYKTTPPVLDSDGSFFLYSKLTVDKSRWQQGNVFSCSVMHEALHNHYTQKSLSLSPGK
Assay: SPR, antigen-Fc captured, Fab analyte
Source text: as §1

Fold improvement in KD [fold] | Kd [nM] | koff [s⁻¹] | kon [M⁻¹ s⁻¹] | Binder
6 | 13.4 | 0.0178 | 1.33e+06 | B1
1 | 175 | 0.279 | 1.59e+06 | B2
25 | 3.23 | 0.0053 | 1.64e+06 | B3
3630 | 0.022 | 0.000128 | 5.84e+06 | B4
7 | 11.7 | 0.0263 | 2.24e+06 | B5
512 | 0.156 | 0.000762 | 4.87e+06 | B6
13 | 6.21 | 0.0131 | 2.11e+06 | B7
31 | 2.57 | 0.00653 | 2.54e+06 | B8
133 | 0.601 | 0.0031 | 5.15e+06 | B9
1120 | 0.0713 | 0.000393 | 5.52e+06 | B10
13 | 6.42 | 0.0151 | 2.35e+06 | B11
3200 | 0.0251 | 6.8e-05 | 2.71e+06 | B12
37 | 2.15 | 0.0077 | 3.57e+06 | B13
5 | 15.6 | 0.032 | 2.05e+06 | B14
768 | 0.104 | 0.000186 | 1.8e+06 | B15
12700 | 0.00629 | 2.56e-05 | 4.08e+06 | B16
130 | 0.615 | 0.00298 | 4.85e+06 | B17
1180 |  |  |  | B18
4200 | 0.0191 | 8.34e-05 | 4.36e+06 | B19
1540 | 0.0517 | 0.00027 | 5.22e+06 | B20
10 | 8.12 | 0.0238 | 2.94e+06 | B21
196 | 0.408 | 0.00181 | 4.45e+06 | B22
13200 | 0.00607 | 2.52e-05 | 4.15e+06 | B23
